± gives the half width of the 95% confidence interval.
Experiments:
[1] = folding stability dG unfold from trypsin proteolysis; higher = more stable
Method in brief: (§1)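 Designed mini-proteins with no cysteine and under 80 residues were kept only if AlphaFold2 dimer inter-PAE was above 15. In a PA-tagged cDNA display construct, they were digested with trypsin and chymotrypsin and then sequenced. K50 was inferred by Bayesian fitting of counts, and unfolding free energy was derived per protease or combined against a sequence-predicted unfolded-state K50 and a shared folded-state K50.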

[2] = folding stability dG unfold from chymotrypsin proteolysis; higher = more stable
Method in brief: as §1

[3] = folding stability dG unfold (combined trypsin and chymotrypsin); higher = more stable
Method in brief: as §1

| Sequence | folding stability dG unfold [1] | folding stability dG unfold [2] | folding stability dG unfold [3] |
| --- | --- | --- | --- |
| SAGMTIEIEIPASTSAEEAVERVEAIVEEVRKAGKKFELTIKTSDPALAAAVRAALEAAGVPVTVEVDSAGG [r19_268_JUSTAS] | 4.07 ± 0.12 kcal/mol | 2.48 ± 0.033 kcal/mol | 3.28 ± 0.066 kcal/mol |
| SAGGSAGGSEWYEIRIPGIKGSADDLVEDIQDWFPAPNMKISIEEVEPMGDGLPGMTIKLRVNSAGGSAGGS [r12_348_TrROS] | 0.227 ± 0.033 kcal/mol | 0.361 ± 0.11 kcal/mol | 0.381 ± 0.054 kcal/mol |
| SAGGSEALTKNLPGVKEIKIEVEPTEVALSPELAKLLPNLPGVKFTVPSVKIDIKIEYPGTPDGTLSAGGSA [r2_404_TrMRF] | 0.133 ± 0.088 kcal/mol | -0.659 ± 0.37 kcal/mol | -0.053 ± 0.15 kcal/mol |
| SAGGNMFMIKIDDPDALKELANEPGISSVHYNPNNGRYTVMFNFPDGMRTFEIDAEDGKIKEIEPFPSAGGS [r8_251_TrROS] | 1.58 ± 0.034 kcal/mol | 1.82 ± 0.037 kcal/mol | 1.79 ± 0.039 kcal/mol |
| SAGGKYKIVEITIKVEPGQSPEEIAAEIAKKLAPPGEKVKVKVEKKDGYLRIYIINEETGEVVEEFELSAGG [r13_724_TrROS_Hall] | 1.66 ± 0.051 kcal/mol | 1.91 ± 0.06 kcal/mol | 1.88 ± 0.14 kcal/mol |
| SAGMTVSTETTTFTDPAGFETTVTTLTTTHPDGSVTSTPTTTVTAVPVPPPPAPVPVDPANPDNPALLSAGG [r19_12_JUSTAS] | 0.461 ± 0.038 kcal/mol | -0.509 ± 0.095 kcal/mol | 0.163 ± 0.025 kcal/mol |
| SAGGSAGGSAGSMAVDLKITISEDPSKPTYTGTVHLPDGTVVTVTSTGSPEELRARLEALLSAGGSAGGSAG [r3_143_JUSTAS] | 0.0769 ± 0.076 kcal/mol | 1.94 ± 0.044 kcal/mol | 1.68 ± 0.088 kcal/mol |
| SAGGSPWIFVIKIEWEPRDPDGKKKKYEYSIVITATPNQLDELLEQIKKAPPGYKIKEVKIEVFPFSAGGSA [r2_75_TrROS] | 2.65 ± 0.18 kcal/mol | 4.21 ± 0.086 kcal/mol | 3.82 ± 0.21 kcal/mol |
| SAGGSAGGSSTATFTLSRLPDGTYRLTLYDPSTNKVTTEEVPASRPDEYSAVTVSSDGTVTTASAGGSAGGS [r20_11_JUSTAS] | 0.771 ± 0.076 kcal/mol | 0.338 ± 0.11 kcal/mol | 0.662 ± 0.095 kcal/mol |
| SAGGSAGGSKLKIPIIRKFKPDEPLPTAEDVKAILEELGLDIKEVKVTYFPEYGYAIAEVEVSSAGGSAGGS [r12_1052_TrMRF] | 1.57 ± 0.033 kcal/mol | 1.24 ± 0.039 kcal/mol | 1.41 ± 0.067 kcal/mol |
| SAGGMIVIEVETEEEALEAARELAKKLLEKLKEEGIEEVTLTVTVEVVDEKTKEVKTYTLTLTVKKPSAGGS [r8_163_TrROS_Hall] | 3.94 ± 0.23 kcal/mol | 4.19 ± 0.051 kcal/mol | 4.08 ± 0.21 kcal/mol |
| SMKPITLEEALKLAEKLIEEGAKEVVIIRREDGTLLAIMEAEEASPEKVKEFLEANPNVRVLRITGSKEESA [r9_568_TrMRF] | 3.17 ± 0.15 kcal/mol | 3.11 ± 0.045 kcal/mol | 3.07 ± 0.12 kcal/mol |
| SAGGPMPLDDIEIHNVWPYKGEYWMVMITVPNNGKEIMIPWDDLDELLENDPNVEVDVMPIKPGQPMSAGGS [r16_61_TrROS] | 1.12 ± 0.04 kcal/mol | 1.21 ± 0.061 kcal/mol | 1.25 ± 0.083 kcal/mol |
| SAGFTLKLEFPDSTVDVKVTKVDPKNNIIYAEALLPGGEKLTLTYNPETGEIEIEKKKLERTPDGGLEESAG [r14_466_JUSTAS] | 0.279 ± 0.14 kcal/mol | 1.51 ± 0.14 kcal/mol | 1.13 ± 0.16 kcal/mol |
| SAGGSAGGNKIWIPITITFMVPVRKDPDGKPKLSPEDPDRWKPVEFEIPIEIDPDPDNGKIKIWSAGGSAGG [r6_537_TrROS] | 1.5 ± 0.042 kcal/mol | 0.701 ± 0.25 kcal/mol | 1.26 ± 0.24 kcal/mol |
| SAGGSAGGWIRVDKVEPNPNDDMATVSVEMEDPGDGKKKKFNMTMPSDNPELIDKLPPGDWIEFSAGGSAGG [r6_979_TrROS] | -0.621 ± 0.1 kcal/mol | 0.215 ± 0.11 kcal/mol | -0.1 ± 0.096 kcal/mol |
| SAGGSAGGSAGMVITKDPNGNYTVDLVLPDGTPLDSGTITLEEVEKILKERGIPLKEIFGSAGGSAGGSAGG [r11_521_JUSTAS] | -0.271 ± 0.27 kcal/mol | 0.543 ± 0.048 kcal/mol | 0.361 ± 0.12 kcal/mol |
| SAGGSAGGSAGLPGAEKARKPKPKVKVKVTLTVLPDGTLVLRVTFEDGTTKTITLKLHPDLLSAGGSAGGSA [r18_192_TrMRF] | 2.37 ± 0.13 kcal/mol | 3.55 ± 0.11 kcal/mol | 3.08 ± 0.24 kcal/mol |
| SAGGSAMIVIPVDPNDPAAEKTVAEAIAAGKDVIIRSPSGKYTFYKPDGSKKELSSEEEIKKAGLESAGGSA [r15_94_JUSTAS] | 0.249 ± 0.086 kcal/mol | -0.495 ± 0.77 kcal/mol | 0.0288 ± 0.19 kcal/mol |
| SAGGSAGGKVRVITVKPGETITVEGLPPGAVLITLPDGSVKEFPAGATIKVPPSAEIVVVEKEDSAGGSAGG [r6_866_TrROS_Hall] | 0.486 ± 0.022 kcal/mol | 0.885 ± 0.04 kcal/mol | 0.778 ± 0.1 kcal/mol |
| SAGGSAGGSAEVEIEFVSYDPSTGRLVRKRVKLKLLPDPKGGPVEVVEVEVDPGGPVPAGASAGGSAGGSAG [r3_397_TrMRF] | 1.91 ± 0.053 kcal/mol | 2.08 ± 0.046 kcal/mol | 2.11 ± 0.12 kcal/mol |

— the supplement of paper PMC12764529
